For assay [1], the target named is ErbB1 receptor (EGF receptor) on HeLa cells (UniProt P00533). The assay is described as follows: cell-based or functional assay.
For assay [2], the target named is EGF receptor (ErbB1) on HeLa 229 cells (UniProt P00533). The assay can be described thus: cell-based or functional assay.

PEGylated betacellulin produced using the mPEG-ButyrALD-20K reagent, sequence (P35070 other isoform, or with tags, fused parts or gaps limits assumed): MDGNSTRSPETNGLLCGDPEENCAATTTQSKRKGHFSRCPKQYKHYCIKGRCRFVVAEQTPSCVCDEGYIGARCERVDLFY
PEGylated betacellulin produced using the mPEG-SMB-20K reagent, sequence (P35070 other isoform, or with tags, fused parts or gaps limits assumed): as above
Unreacted (SEC fraction of the PEGylation reactions, presumably unreacted betacellulin), sequence (P35070 other isoform, or with tags, fused parts or gaps limits assumed): as above

Take “PEGylated betacellulin produced using the mPEG-ButyrALD-20K reagent (from UniProt P35070 32-111) (ligand)”: in assay [1] (scale: % reduction against unreacted betacellulin), the betacellulin activity in the phospho-EGFR pY1068 ELISA on HeLa 229 cells was under 50. Moreover, in assay [2], the activity % (phospho-EGFR pY1068 ELISA, HeLa 229 cells) stood at 58% and the activity % (phospho-EGFR pY1068 ELISA, HeLa 229 cells; SEC column S200) was 55%.

Take “PEGylated betacellulin produced using the mPEG-SMB-20K reagent (from UniProt P35070 32-111) (ligand)”: the betacellulin activity in the phospho-EGFR pY1068 ELISA on HeLa 229 cells (fold lower than unreacted betacellulin) in assay [1] stood at 3. Further, in assay [2], the ELISA activity is equivalent to [BTC] nM (phospho-EGFR pY1068 ELISA, HeLa 229 cells; 40 nM submitted; SEC column S200) came to 14 nM; the activity % (phospho-EGFR pY1068 ELISA, HeLa 229 cells) was 26%; the activity % (phospho-EGFR pY1068 ELISA, HeLa 229 cells; SEC column S200) worked out at 34%.

Take “Unreacted (SEC fraction of the PEGylation reactions, presumably unreacted betacellulin) (from UniProt P35070 32-111) (ligand)”: in assay [2], the ELISA activity is equivalent to [BTC] nM (phospho-EGFR pY1068 ELISA, HeLa 229 cells; 40 nM submitted; SEC column S70) worked out at 0 nM and the activity % (phospho-EGFR pY1068 ELISA, HeLa 229 cells) was 0%.

Values taken from US20110319324A1.
